Values of other authors as cited in publication PMC8112298.

Target: protein Z (Homo sapiens) (UniProt P22891)
Chain of UniProt P22891 (P22891 41-400): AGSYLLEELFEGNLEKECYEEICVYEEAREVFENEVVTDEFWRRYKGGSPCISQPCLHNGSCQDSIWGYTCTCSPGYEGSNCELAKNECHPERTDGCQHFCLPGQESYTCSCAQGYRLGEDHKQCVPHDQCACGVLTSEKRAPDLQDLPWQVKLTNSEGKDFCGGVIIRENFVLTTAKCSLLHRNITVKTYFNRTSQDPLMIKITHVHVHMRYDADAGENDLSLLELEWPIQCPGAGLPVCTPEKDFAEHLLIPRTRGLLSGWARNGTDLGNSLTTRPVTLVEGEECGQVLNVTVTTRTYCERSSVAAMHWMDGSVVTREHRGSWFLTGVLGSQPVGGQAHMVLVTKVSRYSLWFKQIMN

- Kd: 10 nM
Substance: ZPI (from UniProt Q9UK55)
